Data from patent US20240376185A1 (SMIVET B V, published 2024).
Residue numbers refer to the chain shown, from its start. Names may count otherwise.

B1: SVT16-L123Q-GS2-SVA12M2-H6 (bispecific antibody)
chain: QVQLQESGGGSVQAGDSLRLSCAASGRTISNYAMGWFRQAPGKQREFVAAISRSDNTYYTDSVKGRFTISRDNAKNTLYLQMNSLKPEETAVYYCAADPNLMYESKWKYRALEAWGQGTQVTVSSGGGGSGGGSEVQLVESGGGLVQAGGSLRLSCAASGRTFSYYPMAWFRQAPGQEREFVAAIIGADTTYYADSLKGRFTISRDNAKNMVYLQMNSLKPEDTAVYYCAARNTYWSDVYYREGQYTNWGQGTQVTVSSHHHHHH
B2: SVT16-L123Q-GS2-SVG13M4-H6 (bispecific antibody)
chain: QVQLQESGGGSVQAGDSLRLSCAASGRTISNYAMGWFRQAPGKQREFVAAISRSDNTYYTDSVKGRFTISRDNAKNTLYLQMNSLKPEETAVYYCAADPNLMYESKWKYRALEAWGQGTQVTVSSGGGGSGGGSEVQLVESGGGLVQPGGSLRLSCEASGFTFDDYGMSWVRQAPGKGLEWVSSLTPNGGSTYYADSVKGRFTISRDNAKNTLYLQMNSLKPEDTALYYCAKNSYYGAMDYWGQGTQVTVSSHHHHHH
B3: SVT06-SVT16-L123Q-GS2-SVG13M4-H6 (bispecific antibody)
chain: QVQLQESGGGSVQAGGSLRLSCTASELSYDDYTIAWFRRAAGEGRVEDGEGVASITKSYDRAYDNKINYGHSVKGRFTISRDNAKNTVYLQMTDLLPSDTAVYYCALDITPPGGVGASLTEGFLFDYWGQGTQVTVSSQVQLQESGGGSVQAGDSLRLSCAASGRTISNYAMGWFRQAPGKQREFVAAISRSDNTYYTDSVKGRFTISRDNAKNTLYLQMNSLKPEETAVYYCAADPNLMYESKWKYRALEAWGQGTQVTVSSGGGGSGGGSEVQLVESGGGLVQPGGSLRLSCEASGFTFDDYGMSWVRQAPGKGLEWVSSLTPNGGSTYYADSVKGRFTISRDNAKNTLYLQMNSLKPEDTALYYCAKNSYYGAMDYWGQGTQVTVSSHHHHHH
B4: SVT20L-L123Q (VHH)
VHH: QVQLQQSGGGLVQAGGSLRLSCAASGRTMSSYAMGWFRQAPGKQREFVAAISRSGGNTYYTDSVKGRFTISRDNAKNTLYLQMNSLKPEETAVYYCAADPNLMYESKWKYRALEAWGQGTQVTVSS
B5: SVT34L-L123Q (VHH)
VHH: B4 VHH with Q6E, A14P, M29I, T69I, S85N
B6: SVT06-GS3-SVT16-L123Q-GS2-SVA12M2-H6 (bispecific antibody)
chain: QVQLQESGGGSVQAGGSLRLSCTASELSYDDYTIAWFRRAAGEGRVEDGEGVASITKSYDRAYDNKINYGHSVKGRFTISRDNAKNTVYLQMTDLLPSDTAVYYCALDITPPGGVGASLTEGFLFDYWGQGTQVTVSSGGGGSGGGGSGGGGSQVQLQESGGGSVQAGDSLRLSCAASGRTISNYAMGWFRQAPGKQREFVAAISRSDNTYYTDSVKGRFTISRDNAKNTLYLQMNSLKPEETAVYYCAADPNLMYESKWKYRALEAWGQGTQVTVSSGGGGSGGGSEVQLVESGGGLVQAGGSLRLSCAASGRTFSYYPMAWFRQAPGQEREFVAAIIGADTTYYADSLKGRFTISRDNAKNMVYLQMNSLKPEDTAVYYCAARNTYWSDVYYREGQYTNWGQGTQVTVSSHHHHHH

How the values were obtained:
[1] = target: T1, tetanus neurotoxin (TeNT), authentic tetanus holotoxin (Clostridium tetani, UniProt P04958 2-1315)
[2] = target: T1, tetanus neurotoxin (TeNT), authentic …; test: cell-based or functional assay
[3] = target: Tetanus neurotoxin (TeNT), authentic tetanus holotoxin (Clostridium tetani, UniProt P04958 2-1315)
[4] = target: tetanus neurotoxin (TeNT), authentic tetanus holotoxin (Clostridium tetani, UniProt P04958 2-1315); remark: listed apart in the source

Binder | Kd [1] [nM] | koff [1] [s⁻¹] | kon [1] [M⁻¹ s⁻¹] | Endpoint dilution factor [2] | SDA concentration providing full protection [2] [nM] | IC50 [4] [µg/mL] | other results
B1 | 0.224 | 0.000199 | 886000 | – | – | – | –
B2 | 0.227 | 0.000184 | 665000 | < 1 | > 1000 | – | –
B3 | – | – | – | – | – | – | Kd [3]: 0.0159 nM; koff [3]: 6.61e-06 s⁻¹; kon [3]: 417000 M⁻¹ s⁻¹
B4 | – | – | – | – | – | 0.038 | –
B5 | – | – | – | – | – | 0.034 | –
B6 | 0.0133 | 1.32e-05 | 989000 | > 32 | 3.1 | – | Potency IU/mg [2]: > 93.1 IU/mg
